# In IntAct's records for PubMed 12670962:
# B1: Cell division inhibitor SulA (Escherichia coli (strain K12)), P0AFZ5 (parent)
# chain: MYTSGYAHRSSSFSSAASKIARVSTENTTAGLISEVVYREDQPMMTQLLLLPLLQQLGQQSRWQLWLTPQQKLSREWVQASGLPLTKVMQISQLSPCHTVESMVRALRTGNYSVVIGWLADDLTEEEHAELVDAANEGNAMGFIMRPVSASSHATRQLSGLKIHSNLYH
# Variants of: B1
# Settings: with hslu_ecoli hslU
row,Variant,effect of a mutation on the interaction
1,MYTSGYAHRSSSFSSAASKIARVSTENTTAGLISEVVYREDQPMMTQLLLLPLLQQFGQQSRWQLWLTPQQKLSREWVQASGLPLTKVMQISQLSPCHTVESMVRALRTGNYSVVIGWLADDLTEEEHAELVDAANEGNAMGFIMRPVSASSHATRQLSGLKIHSNLYH,disrupting interaction
2,MYTSGYAHRSSSFSSAASKIARVSTENTTAGLISEVVYREDQPMMTQLLLLPLLQQLGQQSRWQLWLTPQQKLSREWVQASGLPLTKVIQISQLSPCHTVESMVRALRTGNYSVVIGWLADDLTEEEHAELVDAANEGNAMGFIMRPVSASSHATRQLSGLKIHSNLYH,increasing interaction
